From patent EP4692118A1 come the findings set out here.

The target of test [1] is ADAM9 on human tumour cells (LS174T, HepG2, Calu-3, Colo205) (human) (UniProt Q13443). Briefly: flow cytometry on LS174T cells, 1000 nM, negative control. For orientation: In flow cytometry, cells or beads pass a laser one at a time.
For test [2] the target is unchanged. Briefly: flow cytometry on LS174T cells, 0.003815 nM, negative control.
The target is the same in test [3]. Put plainly: flow cytometry on HepG2 cells, 0.244141 nM, negative control.
For test [4] the target is unchanged. Put plainly: flow cytometry on HepG2 cells, 0.000954 nM, negative control.
The target is the same in test [5]. Put plainly: flow cytometry on LS174T cells, 0.244141 nM, negative control.
For test [6] the target is unchanged. Briefly: flow cytometry on HepG2 cells, 0.015259 nM, negative control.
For test [7] the target is unchanged. Put plainly: flow cytometry on LS174T cells, 15.625 nM, negative control.
Test [8] shares this target. Briefly: flow cytometry on HepG2 cells, 0.000238 nM, negative control.
For test [9] the target is unchanged. Briefly: flow cytometry on LS174T cells, 62.5 nM, negative control.
For test [10] the target is unchanged. Put plainly: flow cytometry on LS174T cells, 0.061035 nM, negative control.
The target is the same in test [11]. Put plainly: flow cytometry on LS174T cells, 250 nM, negative control.
Test [12] has the same target. Briefly: flow cytometry on HepG2 cells, 3.906250 nM, negative control.
Test [13] shares this target. Put plainly: flow cytometry on LS174T cells, 0.000954 nM, negative control.
The target is the same in test [14]. Briefly: flow cytometry on HepG2 cells, 15.625 nM, negative control.
The target is the same in test [15]. Put plainly: flow cytometry on HepG2 cells, 0.976563 nM, negative control.
The target is the same in test [16]. Briefly: flow cytometry on LS174T cells, 3.906250 nM, negative control.
For test [17] the target is unchanged. Put plainly: flow cytometry on HepG2 cells, 250 nM, negative control.
The target is the same in test [18]. Briefly: flow cytometry on HepG2 cells, 0.003815 nM, negative control.
For test [19] the target is unchanged. Briefly: flow cytometry on HepG2 cells, 0.061035 nM, negative control.
Test [20] shares this target. Put plainly: flow cytometry on HepG2 cells, 62.5 nM, negative control.
The target is the same in test [21]. Put plainly: flow cytometry on LS174T cells, 0.015259 nM, negative control.
The target is the same in test [22]. Put plainly: flow cytometry on LS174T cells, 0.976563 nM, negative control.
Test [23] shares this target. Briefly: flow cytometry on HepG2 cells, 1000 nM, negative control.
Test [24] shares this target. Put plainly: flow cytometry on LS174T cells, 250 nM.
The target is the same in test [25]. Briefly: flow cytometry on LS174T cells, 15.625 nM.
Test [26] has the same target. Put plainly: cell-based or functional assay.
Test [27] shares this target. Briefly: flow cytometry on LS174T cells, 0.061035 nM.
Test [28] has the same target. Briefly: flow cytometry on LS174T cells, 0.000954 nM.
Test [29] shares this target. Put plainly: flow cytometry on LS174T cells, 0.015259 nM.
For test [30] the target is unchanged. Briefly: flow cytometry on LS174T cells, 0.244141 nM.
The target is the same in test [31]. Briefly: flow cytometry on LS174T cells, 0.003815 nM.
For test [32] the target is unchanged. Briefly: flow cytometry on LS174T cells, 3.906250 nM.
Test [33] shares this target. Put plainly: flow cytometry on LS174T cells, 1000 nM.
The target is the same in test [34]. Briefly: flow cytometry on LS174T cells, 0.976563 nM.
Test [35] has the same target. Briefly: flow cytometry on LS174T cells, 62.5 nM.
The target is the same in test [36]. Put plainly: flow cytometry on HepG2 cells, 0.015259 nM.
Test [37] has the same target. Put plainly: flow cytometry on HepG2 cells, 15.625 nM.
Test [38] has the same target. Briefly: flow cytometry on HepG2 cells, 0.000954 nM.
For test [39] the target is unchanged. Briefly: flow cytometry on HepG2 cells, 1000 nM.
Test [40] has the same target. Put plainly: flow cytometry on HepG2 cells, 0.000238 nM.
Test [41] shares this target. Put plainly: flow cytometry on HepG2 cells, 3.906250 nM.
Test [42] has the same target. Briefly: flow cytometry on HepG2 cells, 0.976563 nM.
Test [43] has the same target. Briefly: flow cytometry on HepG2 cells, 62.5 nM.
For test [44] the target is unchanged. Briefly: flow cytometry on HepG2 cells, 0.061035 nM.
Test [45] has the same target. Briefly: flow cytometry on HepG2 cells, 0.244141 nM.
Test [46] shares this target. Briefly: flow cytometry on HepG2 cells, 250 nM.
For test [47] the target is unchanged. Put plainly: flow cytometry on HepG2 cells, 0.003815 nM.

Chain of ADAM9 on human tumour cells (LS174T, HepG2, Calu-3, Colo205) (human) (Q13443 29-819): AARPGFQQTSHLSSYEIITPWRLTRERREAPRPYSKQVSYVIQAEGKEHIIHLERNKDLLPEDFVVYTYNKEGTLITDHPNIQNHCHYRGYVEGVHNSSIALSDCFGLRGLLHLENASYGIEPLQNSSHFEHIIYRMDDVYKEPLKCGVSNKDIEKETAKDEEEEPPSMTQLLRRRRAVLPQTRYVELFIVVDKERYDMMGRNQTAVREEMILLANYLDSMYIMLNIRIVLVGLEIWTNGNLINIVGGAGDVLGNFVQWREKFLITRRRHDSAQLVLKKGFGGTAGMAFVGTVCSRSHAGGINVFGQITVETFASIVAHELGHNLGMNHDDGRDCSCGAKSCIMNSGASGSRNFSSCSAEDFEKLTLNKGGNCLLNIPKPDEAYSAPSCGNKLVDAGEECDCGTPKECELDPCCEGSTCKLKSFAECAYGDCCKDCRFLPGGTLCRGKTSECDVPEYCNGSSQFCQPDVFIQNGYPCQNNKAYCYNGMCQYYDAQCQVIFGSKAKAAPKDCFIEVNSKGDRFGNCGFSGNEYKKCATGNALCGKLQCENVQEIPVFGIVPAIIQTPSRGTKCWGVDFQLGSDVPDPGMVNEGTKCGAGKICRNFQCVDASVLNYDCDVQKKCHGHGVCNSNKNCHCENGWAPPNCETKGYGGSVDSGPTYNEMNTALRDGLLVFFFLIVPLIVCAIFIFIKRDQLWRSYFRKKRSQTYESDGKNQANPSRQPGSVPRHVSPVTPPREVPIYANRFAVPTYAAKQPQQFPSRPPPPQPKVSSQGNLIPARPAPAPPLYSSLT

For the molecule “anti-HIV human IgG antibody (iso-IgG1, produced by WuXi AppTec)”, the Mean fluorescence intensity was determined as 368 in [1]; 254 in test [2]; 208 in test [5]; 209 in test [7]; 229 in test [9]; 202 in test [10]. Moreover, the Mean fluorescence intensity in test [11] came out at 269; in test [13], 220; in [16], 203; in test [21] it was 213; in test [22], 212. Moreover, the Mean fluorescence intensity (MFI) in test [3] was found to be 363; in [4], 365; in [6], 371; in [8], 361; in [12], 361; in test [14], 364. Moreover, the Mean fluorescence intensity (MFI) in [15] is 360; in [17] it was 389; in test [18], 349; in test [19] it was 377; in test [20], 386; in test [23], 690.

B1: antibody-drug conjugate Ab16-X2 (antibody, human IgG1, kappa, V domains shown)
VH: QVQLQQPGTEVVKPGASVKLSCKASGFTFPLYWMHWVRQRPGRGLEWIGRIIPIFGHTKYNEKFKNKATLTADESSSTAYMELRSLTSDDSAVYYCARGGYYYYPREGFLDYWGQGTSVTVSS
VL: DIVMTQSPASLSVSPGERASISCRSSQSVDYSGDSYMNWYQQKPGQSPRLLIYAASDRESGVPDRFSGSGSGTDFTLKISRVEEEDAGTYYCQQSREDPFTFGQGTKVDIKR
modifications: linker-payload X2 (camptothecin type) conjugated after reduction with tris(2-carboxyethyl)phosphine; DAR p = 7.9; sites not given
For B1, the Mean fluorescence intensity in test [24] came out at 2130; in [25] it was 2400; in test [27] it was 447; in test [28], 223; in test [29], 268; in test [30], 954. The Mean fluorescence intensity in test [31] was 219; in test [32], 2380; in [33], 1130; in [34] it was 1960; in test [35] it was 2160. Moreover, the IC50 (nM) of proliferation inhibition, Calu-3 cells, CellTiter-Glo, 6 days in [26] is 3.83 nM. Also, in test [26], the IC50 (nM) of proliferation inhibition, Colo205 cells, CellTiter-Glo, 6 days was found to be 29.8 nM. The molecule further displayed an IC50 (nM) of proliferation inhibition, LS174T cells, CellTiter-Glo, 6 days in [26] of 8.97 nM.

B2: antibody-drug conjugate Ab16-X1 (antibody, human IgG1, kappa, V domains shown)
VH: QVQLQQPGTEVVKPGASVKLSCKASGFTFPLYWMHWVRQRPGRGLEWIGRIIPIFGHTKYNEKFKNKATLTADESSSTAYMELRSLTSDDSAVYYCARGGYYYYPREGFLDYWGQGTSVTVSS
VL: DIVMTQSPASLSVSPGERASISCRSSQSVDYSGDSYMNWYQQKPGQSPRLLIYAASDRESGVPDRFSGSGSGTDFTLKISRVEEEDAGTYYCQQSREDPFTFGQGTKVDIKR
modifications: linker-payload X1 (camptothecin type) conjugated after reduction with tris(2-carboxyethyl)phosphine; DAR p = 7.8; sites not given
Consider B2, for which the Mean fluorescence intensity (MFI) is 451 in [36]; 2960 in test [37]; 376 in test [38]; 17400 in test [39]; 370 in [40]; 1780 in [41]. For the same molecule, the Mean fluorescence intensity (MFI) was determined as 1790 in test [42]; 3290 in test [43]; 623 in test [44]; 1090 in test [45]; 16600 in test [46]; 396 in [47]. Moreover, in test [26], the IC50 (nM) of proliferation inhibition, Calu-3 cells, CellTiter-Glo, 6 days came to 8.6 nM.
